# According to patent US7799326B2, “Methods and compositions for cathespin k complex-mediated disorders” (Mount Sinai School of Medicine, priority 2001, dated 2010):
# Positions count from the first letter of the chain named. Names may count otherwise. “Also recorded” adds a separate entry of the source.
# B1: Cat S: human cathepsin S, closely related cysteine protease (protein, UniProt P25774 115-331, looked up)
# Cathepsin S: LPDSVDWREKGCVTEVKYQGSCGACWAFSAVGALEAQLKLKTGKLVSLSAQNLVDCSTEKYGNKGCNGGFMTTAFQYIIDNKGIDSDASYPYKAMDQKCQYDSKYRAATCSKYTELPYGREDVLKEAVANKGPVSVGVDARHPSFFLYRSGVYYEPSCTQNVNHGVLVVGYGDLNGKEYWLVKNSWGHNFGEEGYIRMARNKGNHCGIASFPSYPEI
# B2: Y212C: pycnodysostosis-causing cathepsin K mutant (protein, UniProt P43235 115-329, looked up, variant Y212C)
# Cathepsin K: APDSVDYRKKGYVTPVKNQGQCGSCWAFSSVGALEGQLKKKTGKLLNLSPQNLVDCVSENDGCGGGYMTNAFQYVQKNRGIDSEDAYPYVGQEESCMCNPTGKAAKCRGYREIPEGNEKALKRAVARVGPVSVAIDASLTSFQFYSKGVYYDESCNSDNLNHAVLAVGYGIQKGNKHWIIKNSWGENWGNKGYILMARNKNNACGIANLASFPKM
# B3: mutant 5: cathepsin K mutant K9E (protein, UniProt P43235 115-329, looked up, variant K9E)
# Cathepsin K: B2 Cathepsin K with K9E, C98Y
# B4: mutant 1: cathepsin K mutant K77A, R79A (protein, UniProt P43235 115-329, looked up, variant K77A R79A)
# Cathepsin K: B2 Cathepsin K with K77A, R79A, C98Y
# Legend:
# [1] = Mobility shift assay of complex formation of proteases with CSA; assay type: binding
# Method: The gel was run at about 25° C. 55 V, 250 mA for 30 min, then dried and developed the radio signal on a film.
# gelatin = experiment: Gelatin hydrolysis by cathepsin K mutant proteins; assay type: biochemical
# [2] = Activity of cathepsin K mutant proteins towards synthetic peptide substrates; assay type: biochemical; details: Example 17 mutants
# Method: (§1) The mutant proteins were generated to characterize cluster 1:K77A, R79A (mutant 1), K103, K106A, R108A, R111A, (mutant 2), K77A, R79A, K103, K106A, R108A,R111A (mutant 3), K77A, R79A, K103, K106A, R108A,R111A, K122A, R127A (mutant 4). Mutant proteins were expressed in Pichia pastoris and the activity of the protein was determined towards two synthetic peptide substrates, gelatin and type I native collagen. […] The cleavage products were separated by SDS polyacrylamide electrophoresis using 4-20% Tris Glycine gels.
# type I collagen = experiment: Type I collagen hydrolysis by cathepsin K mutant proteins; assay type: biochemical, bovine; details: 800 nM protein, 0.4 mg/ml collagen, 0.15% CSA, 8 h at 28 C, pH 5.5
# Method: as §1
molecule,measurement,setting,value
B1,complex formation with CSA,"[1]; 50 ng [125I]DCG-04 labeled protease, 0.1% CSA",Only cathepsin K formed a stable complex
B2,complex formation with CSA,[1]; 0.2 μg/ml and 1000 μg/ml CSA,unable to form a complex with CSA
same,gelatin hydrolysis by the protease,"gelatin; 1 nM Y212C, 0.15% CSA, 37 C for 8 h",exhibited gelatinase activity
B3,complex formation with CSA,"[1]; Example 17 mutants, gel-mobility assay",still revealed complex formation
same,activity towards synthetic peptide substrates compared with wild type,[2],fully active
same,degradation of type I collagen by the protease,type I collagen,strongly inhibited; also recorded: significantly reduced
same,activity towards gelatin compared with wild type,gelatin; Example 17 mutants,fully active
B4,degradation of type I collagen by the protease,type I collagen,complete degradation of type I collagen
same,degradation of type I collagen by the protease,type I collagen; listed as Mutant 1,did not reveal an inhibition
